According to paper PMC9865957, “^68Ga-HBED-CC-WL-12 PET in Diagnosing and Differentiating Pancreatic Cancers in Murine Models” (Pharmaceuticals, 2023):

Tests used:
[1] = system: PANC02 cells; test: Cellular uptake assay, PANC02 cells; format: cell-based, murine; conditions: 1.5 kBq tracer, 45 min incubation with constant shaking, γ-counter, mean ± SD
Protocol: (§1) Murine pancreatic cancer cell PANC02 and human glioma cancer cell U87MG were obtained from Tongpai Biotechnology Co., LTD. The cells were cultured in DMEM medium containing 10% fetal bovine serum (FBS) and 1% penicillin–streptomycin. The cells grew adherent when cultured at 37 °C, 5% CO2, and appropriate humidity.
(§2) PANC02 and U87MG cells incubated to a confluence of approximately 80% in a 10 cm Petri dish were digested, centrifugated, and separated to several EP tubes. Then, the cells were incubated with 1.5 kBq ^68Ga-WL12 in a state of constant shaking for 5, 15, 30, and 45 min. At each time point, precipitation of cells was collected after centrifugating and washing by PBS. The radioactivity for each sample was measured by a γ-counter and calculated as the percentage.

[2] = system: U87MG cells; test: Cellular uptake assay, U87MG cells; format: cell-based, human; conditions: 1.5 kBq tracer, 45 min incubation with constant shaking, γ-counter, mean ± SD
Protocol: as §1, §2

[3] = in vivo; conditions: female, C57BL/6, mouse, iv, 3.7 MBq, total radioactivity
Protocol: C57BL/6 female mice were obtained from Shanghai Lingchang Biotechnology Co., LTD, Shanghai, China. The animals were kept in the Animal Experiment Center of Shanghai Changhai Hospital of SPF level. Then, 1 × 10^6 PANC02 cells in 0.1 mL mixture of PBS and Matrigel at a 1:1 ratio was inoculated subcutaneous into the right trunk of the mice. When the tumor reached an average volume of 300–500 mm^3, in vivo experiments of tracer metabolism were performed.
All imaging acquisition was performed on a clinical PET-CT scanner (Biograph64, Siemens Healthcare, Erlangen, Germany). Before imaging, the model mice were injected with 50 μL sodium pentobarbital (3%) into the abdominal cavity for anesthesia. […] For quantification of tracer uptake, 3D regions of interest (ROI) were drawn on the muscle, liver, and tumor.

[4] = in vitro; conditions: 10% FBS (serum)
Protocol: The radiochemical purity of [^68Ga]-WL12 was determined by thin-layer chromatography (ITLC) using glass microfiber chromatography paper impregnated with a silica gel as the stationary phase and acetonitrile (50%) as the mobile phase. For the evaluation of in vitro stability, [^68Ga]-WL12 was incubated at 37 °C with saline and 10% serum, respectively, for 60 min. Aliquots (3.7 kBq) of each radiolabeled ligand were taken and analyzed by ITLC.

[5] = In vitro stability in saline (ITLC); format: physicochemical; conditions: 37 °C, read-out ITLC (silica gel paper, 50% acetonitrile), mean ± SD

Row | SMILES | specific binding rate in PANC02 [1] | specific binding rate in U87MG [2] | SUV at 20 min [3] | SUV at 1.5 h [3] | tissue to tissue ratio at 1.5 h ([3]; tumor-to-liver (T/L) ratio based on SUVmax) | tissue to tissue ratio at 1.5 h ([3]; tumor-to-muscle (T/M) ratio based on SUVmax) | remaining at 1 h [4] | RCP after 60 min incubation in saline [5] | SUV at 1 h [3]
1 | CCCC[C@H]1C(=O)N(C)[C@@H](CCCC)C(=O)N[C@@H](CCCNC(=O)CCc2ccc(O)c(CN(CCN(CC(=O)O)Cc3cc(CCC(=O)O)ccc3O)CC(=O)O)c2)C(=O)N[C@H](C(=O)NCC(N)=O)CSCC(=O)N[C@@H](Cc2ccc(O)cc2)C(=O)N(C)[C@@H](C)C(=O)N[C@@H](CC(N)=O)C(=O)N2CCC[C@H]2C(=O)N[C@@H](Cc2c[nH]cn2)C(=O)N[C@@H](CC(C)C)C(=O)N2C[C@H](O)C[C@H]2C(=O)N[C@@H](Cc2c[nH]c3ccccc23)C(=O)N[C@@H](CO)C(=O)N[C@@H](Cc2cn(C)c3ccccc23)C(=O)N1C [^68Ga-HBED-CC-WL12, metal not drawn] | 31.2 ± 9.4% | 37.7 ± 2.4% | 0.37 SUV | 0.38 ± 0.02 SUV | 0.45 ± 0.03 | > 2 | 56.5 ± 2.3% | 92.5 ± 1.5% | –
2 | N=C(N)NCCC[C@@H]1NC(=O)[C@H](CCCCNC(=O)CC[C@H](NC(=O)CN2CCN(CC(=O)O)CCN(CC(=O)O)CCN(CC(=O)O)CC2)C(=O)NCCCC[C@@H]2NC(=O)[C@@H](Cc3ccccc3)NC(=O)[C@H](CC(=O)O)NC(=O)CNC(=O)[C@H](CCCNC(=N)N)NC2=O)NC(=O)[C@@H](Cc2ccccc2)NC(=O)[C@H](CC(=O)O)NC(=O)CNC1=O [^68Ga-RGD, metal not drawn, reference compound] | – | – | – | – | – | – | – | – | < 0.05 SUV
